This note sets out measurements from patent US20260116996A1 (REGENTS OF THE UNIVERSITY OF MINNESOTA, published 2026).

One assay has as its target T1, human serpinB3 (human, UniProt P29508 1-390).
T1 construct: Luminex antigen captured from a 293 cell lysate; not shown: V5-His tag of the pcDNA3.1 Directional V5-His-TOPO vector
T1 sequence (looked up): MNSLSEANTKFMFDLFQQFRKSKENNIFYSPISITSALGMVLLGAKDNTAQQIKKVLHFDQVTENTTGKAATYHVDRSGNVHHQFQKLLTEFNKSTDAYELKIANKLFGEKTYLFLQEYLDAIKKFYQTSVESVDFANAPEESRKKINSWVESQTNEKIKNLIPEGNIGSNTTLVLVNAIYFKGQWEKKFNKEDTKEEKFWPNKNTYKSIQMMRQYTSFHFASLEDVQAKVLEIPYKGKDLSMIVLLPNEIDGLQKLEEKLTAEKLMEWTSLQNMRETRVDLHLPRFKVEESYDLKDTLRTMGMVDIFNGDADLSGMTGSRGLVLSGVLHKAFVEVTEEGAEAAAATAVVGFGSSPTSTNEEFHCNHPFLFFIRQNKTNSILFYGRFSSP
Kind of assay: ELISA cross-reactivity test / Luminex bead assay (FIG. 25). How it is done: (§1) Three recombinant human anti-serpinB13 antibodies were examined in the Luminex-based assay for binding to other clade B serpins, in order as indicated. The final concentration of each antibody was 1.0 μg/mL. The data are expressed as immunofluorescence intensity measured for binding to individual human serpin antigens after subtracting the background. The latter was determined as the average antibody binding to Luminex beads coated with Gfp and Scgn control antigens. Similar data were obtained for antigen binding of Fab fragments of these antibodies (data not shown).
(§2) Luminex assay. Luminex-based technology was used to measure serpinB13 AA in human samples. Initially, the Luminex beads were precoated with serpinB13, Gfp and Scgn, using precleared lysates of 293 cells that had been transfected with individual cDNAs. Biotinylated mouse anti-human K and 2 chain mAbs (BD Biosciences) (dilution 1:300) and streptavidin (Invitrogen) (dilution 1:200) were used as secondary reagents to measure human serum binding activity to individual antigens. The data were expressed as fluorescence intensity (F.I.) due to serum binding activity in the presence of beads precoated with serpinB13 and after subtracting the average F.I. due to serum binding activity in the presence of beads precoated with control proteins, Gfp and Scgn (e.g. F.I.^B13-[F.I.^GFP+F.I.^Segn]/2). The samples were evaluated based on the level of F.I. and the degree of inhibition of binding to serpin-B13 coated beads with soluble serpinB13 (2.5 μg/mL), compared with the bovine serum albumin (BSA). […] All samples were run blind on three independent occasions. Subjects with serum samples that produced a positive results three times were considered positive. Subjects with serum samples that produced a negative result on at least one occasion were considered negative.
(§3) To determine whether anti-serpin activity is specific, binding of three human recombinant antibodies to serpinB13 was examined for potential cross-reactivity with other clade B serpins.

The next assay has as its target T2, human serpinB10 (human, UniProt P48595 1-397).
T2 construct: Luminex antigen captured from a 293 cell lysate; not shown: V5-His tag of the pcDNA3.1 Directional V5-His-TOPO vector
T2 sequence (looked up): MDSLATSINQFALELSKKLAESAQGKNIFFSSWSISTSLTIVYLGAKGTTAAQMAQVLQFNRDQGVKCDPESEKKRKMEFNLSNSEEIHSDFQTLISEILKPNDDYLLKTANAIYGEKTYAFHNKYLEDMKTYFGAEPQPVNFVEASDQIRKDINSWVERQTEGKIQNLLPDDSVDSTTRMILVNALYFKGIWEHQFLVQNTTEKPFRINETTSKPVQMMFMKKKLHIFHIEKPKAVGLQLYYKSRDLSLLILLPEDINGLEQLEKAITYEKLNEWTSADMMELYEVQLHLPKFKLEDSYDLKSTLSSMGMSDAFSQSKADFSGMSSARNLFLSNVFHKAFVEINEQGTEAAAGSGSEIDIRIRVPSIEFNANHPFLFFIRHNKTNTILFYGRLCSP
The description is as above. How it is done:
as §1, §2, §3

In a further assay the target is T3, human serpinB9 (human, UniProt P50453 1-376).
T3 construct: Luminex antigen captured from a 293 cell lysate; not shown: V5-His tag of the pcDNA3.1 Directional V5-His-TOPO vector
T3 sequence (looked up): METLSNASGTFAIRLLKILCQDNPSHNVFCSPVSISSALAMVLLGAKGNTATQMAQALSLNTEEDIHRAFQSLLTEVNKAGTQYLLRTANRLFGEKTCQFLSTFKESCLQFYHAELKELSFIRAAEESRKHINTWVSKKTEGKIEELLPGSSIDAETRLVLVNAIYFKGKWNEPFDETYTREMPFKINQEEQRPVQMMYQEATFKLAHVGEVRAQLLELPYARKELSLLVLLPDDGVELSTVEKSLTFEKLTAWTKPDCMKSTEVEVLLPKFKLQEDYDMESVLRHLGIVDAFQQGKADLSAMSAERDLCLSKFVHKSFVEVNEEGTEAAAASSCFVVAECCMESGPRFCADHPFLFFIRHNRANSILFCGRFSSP
Kind of assay: Luminex bead assay, beads coated with human serpinB9, background (Gfp and Scgn beads) subtracted. Here is the method:
(§4) The latter was determined as the average antibody binding to Luminex beads coated with Gfp and Scgn control antigens. Similar data were obtained for antigen binding of Fab fragments of these antibodies (data not shown).
as §2
(§5) To determine whether anti-serpin activity is specific, binding of three human recombinant antibodies to serpinB13 was examined for potential cross-reactivity with other clade B serpins. Binding to the beads conjugated with Gfp and Scgn was used to subtract the background and the assay was developed using the same reagents as those described above for measuring serpinB13 AA in serum samples.

Assay [1] concerns the target T4, recombinant human serpinB13 (human, UniProt Q9UIV8 1-391).
T4 construct: The baculovirus-made protein (GenScript) was used for panning, ELISA and the cathepsin L assay; In the Luminex assay human serpinB13 was V5-His tagged and came from 293 cell lysates; also called rhB13
T4 sequence (looked up): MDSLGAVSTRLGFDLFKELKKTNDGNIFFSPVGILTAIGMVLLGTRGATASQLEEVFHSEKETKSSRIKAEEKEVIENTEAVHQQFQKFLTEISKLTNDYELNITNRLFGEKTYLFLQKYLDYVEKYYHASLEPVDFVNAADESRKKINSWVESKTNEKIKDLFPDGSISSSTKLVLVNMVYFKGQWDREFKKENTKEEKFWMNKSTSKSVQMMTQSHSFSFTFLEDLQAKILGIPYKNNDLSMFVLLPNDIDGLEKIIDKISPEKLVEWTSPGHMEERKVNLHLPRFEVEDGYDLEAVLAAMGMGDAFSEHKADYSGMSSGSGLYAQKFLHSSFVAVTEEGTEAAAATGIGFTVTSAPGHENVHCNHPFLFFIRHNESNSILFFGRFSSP
The assay is described as follows: Luminex bead assay, beads coated with human serpinB13, antibody at 1.0 µg/mL, background (mean of Gfp and Scgn beads) subtracted. Here is the method:
as §4, §2, §5

B1: recombinant fully human anti-serpinB13 antibody Clone 1 (antibody, human IgG1, kappa, V domains shown)
VH: QVQLQESGGGVVQPGRSLRLSCAASGFTFSSYGMHWVRQAPGKGLEWVAVISYDGSNKYYADSVKGRFTISRDNSKNTLYLQMNSLRAEDTAVYYCARDLGAVIAVAGTSTPYNWFDPWGQGTLVTVSS
VL: DVVMTQSPLSLPVTPGEPASISCRSRQSLLHSNGHNYLGWYLQKPGQSPQLLIYLASIRASGIPDRFSGSGSGTDFTLKISRVEAEDVGVYYCMQALQTPYTFGQGTKLEIKR
notes: also called mAb1; mAbs1
Regarding B1, the binding result in the assay with human serpinB3 is recorded as “no binding (tested: 1.0 µg/mL)”; in the assay with human serpinB10, “no binding (tested: 1.0 µg/mL)”; with human serpinB9, “no binding (tested: 1.0 µg/mL)”; in assay [1], “binds”.

B2: recombinant fully human anti-serpinB13 antibody Clone 2 (antibody, human IgG1, kappa, V domains shown)
VH: QMQLVQSGGGVVRPGGSLRLSCAASGFTFDDYGMSWVRQAPGKGLEWVSGINWNGGSTGYADSVKGRFTISRDNAKNSLYLQMNSLRAEDTALYYCARESSMTTVTTYLLREVGVGLDFDYWGQGTLVTVSS
VL: ETTLTQSPGTLSLSPGERATLSCRASQTVSGSYLAWYQQKPGQPPRLLIYGASSRATGIPDRFSGSGSGTDFTLTISRLEPEDFAVYYCQDYGSSRTFGQGTKVELKR
notes: also called mAb2; CLONE2-H(m1) / CLONE2-L(m1)
Turning to B2, the binding result with human serpinB3 is recorded as “no binding (tested: 1.0 µg/mL)”; with human serpinB10, “no binding (tested: 1.0 µg/mL)”; with human serpinB9, “no binding (tested: 1.0 µg/mL)”; in assay [1] it was “binds”.

B3: recombinant fully human anti-serpinB13 antibody Clone 3 (antibody, human IgG1, kappa, V domains shown)
VH: QVQLQQWGAGLLKPSETLSLTCAVYGGSFSGYYWSWIRQPPGKGLEWIGEINHSGSTNYNPSLKSRVTISVDTSKNQFSLKLSSVTAADTAVYYCARRYCSGGSCYLVGTGSELDYWGQGTLVTVSS
VL: DIQMTQSPSTLSASVGDRVTITCRASQSISSWLAWYQQKPGKAPKLLIYKASSLEIGVPSRFSGSGYGTEFTLTISSLQPDDFATYYCLQYSTHSTFGQGTRVEIKR
notes: also called mAb3; CLONE3-H(m1) / CLONE3-L(m1)
Regarding B3, the binding result in the assay with human serpinB3 is recorded as “no binding (tested: 1.0 µg/mL)”; with human serpinB10 it was “no binding (tested: 1.0 µg/mL)”; in the assay with human serpinB9, “no binding (tested: 1.0 µg/mL)”; in assay [1] it was “binds”.
